Measured values: publication PMC9818667

T1: angiotensin-converting enzyme (ACE) from rabbit lung (rabbit) (UniProt P12822)
T1 sequence: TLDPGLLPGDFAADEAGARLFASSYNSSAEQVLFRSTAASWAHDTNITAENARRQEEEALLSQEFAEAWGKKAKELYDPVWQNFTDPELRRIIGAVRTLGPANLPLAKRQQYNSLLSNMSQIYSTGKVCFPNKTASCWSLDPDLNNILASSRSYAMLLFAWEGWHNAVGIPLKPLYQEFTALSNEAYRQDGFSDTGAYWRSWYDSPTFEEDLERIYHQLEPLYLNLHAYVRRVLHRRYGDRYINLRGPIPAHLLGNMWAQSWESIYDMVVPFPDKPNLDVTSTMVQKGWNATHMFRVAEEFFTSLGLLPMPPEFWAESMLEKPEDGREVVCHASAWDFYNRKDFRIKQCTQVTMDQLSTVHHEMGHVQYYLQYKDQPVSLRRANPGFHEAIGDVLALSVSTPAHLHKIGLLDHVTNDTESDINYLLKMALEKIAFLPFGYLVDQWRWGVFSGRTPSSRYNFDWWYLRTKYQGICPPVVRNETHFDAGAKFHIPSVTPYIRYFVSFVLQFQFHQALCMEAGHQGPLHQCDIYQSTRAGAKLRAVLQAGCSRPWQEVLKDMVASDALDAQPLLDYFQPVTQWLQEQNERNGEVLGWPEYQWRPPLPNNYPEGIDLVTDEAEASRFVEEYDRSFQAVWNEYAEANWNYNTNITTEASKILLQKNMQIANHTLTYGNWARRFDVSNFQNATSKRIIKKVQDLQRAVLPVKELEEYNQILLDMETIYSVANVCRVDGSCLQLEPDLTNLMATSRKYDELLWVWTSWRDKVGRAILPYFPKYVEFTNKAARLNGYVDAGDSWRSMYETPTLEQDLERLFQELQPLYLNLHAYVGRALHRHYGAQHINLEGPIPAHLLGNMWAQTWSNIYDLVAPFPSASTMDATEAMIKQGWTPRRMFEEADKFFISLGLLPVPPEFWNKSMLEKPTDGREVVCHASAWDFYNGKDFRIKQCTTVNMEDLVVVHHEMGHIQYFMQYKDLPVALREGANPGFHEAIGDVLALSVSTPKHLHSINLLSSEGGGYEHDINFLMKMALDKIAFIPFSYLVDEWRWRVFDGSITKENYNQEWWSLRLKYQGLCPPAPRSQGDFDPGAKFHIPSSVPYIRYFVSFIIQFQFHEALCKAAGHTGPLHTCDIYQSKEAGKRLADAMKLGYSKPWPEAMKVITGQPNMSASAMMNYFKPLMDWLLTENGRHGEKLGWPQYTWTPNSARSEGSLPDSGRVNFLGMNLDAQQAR


Target: T1, angiotensin-converting enzyme (ACE) from rabbit lung (rabbit)

| ACE inhibitory activity (substrate HHL, hippuric acid by HPLC), peptide at 1 mg/mL [%] | IC50 of ACE inhibitory activity (substrate HHL, hippuric acid by HPLC) [µg/mL] | Binder |
| --- | --- | --- |
| 40.9 |  | QFQPGFSSS |
| 1.57 |  | STGEAFVQFASQEIAEK |
| 26.7 |  | TTPSYVAFTDTER |
| 91.7 | 39 | VALSSLRP |
| 2.81 |  | NPDDITNEEYGEFYK |
